Results from the Human Domainome abundance scans (Beltran et al. 2025).
± gives the uncertainty stated by the source.

Assay: abundance fitness (aPCA) (normalised: wild type 0, dead -1); higher = more abundant; growth selection in yeast, the domain comes from the species named
Conditions: Homo sapiens

Going from “Transcriptional activator Myb T145V, P10242” to “Transcriptional activator Myb E194L, P10242”, the abundance fitness falls from -0.007 ± 0.068 to -0.192 ± 0.088.

“Transcriptional activator Myb G175Q, P10242” and “Transcriptional activator Myb R190T, P10242” are within error of each other in abundance fitness: -0.315 ± 0.12 for the first, -0.131 ± 0.08 for the second.

“Transcriptional activator Myb T188R, P10242” and “Transcriptional activator Myb S146A, P10242” are within error of each other in abundance fitness: -0.166 ± 0.04 for the first, -0.233 ± 0.15 for the second.

Going from “Transcriptional activator Myb E196M, P10242” to “Transcriptional activator Myb W166T, P10242”, the abundance fitness falls from -0.084 ± 0.093 to -0.63 ± 0.11.

“Transcriptional activator Myb N183I, P10242” and “Transcriptional activator Myb G197N, P10242” are within error of each other in abundance fitness: -0.022 ± 0.11 for the first, 0.083 ± 0.16 for the second.

First: Transcriptional activator Myb D152C, P10242
Second: Transcriptional activator Myb V193I, P10242
The abundance fitness of the first is lower: -0.833 ± 0.14 for the first, -0.066 ± 0.1 for the second.

“Transcriptional activator Myb E194N, P10242” and “Transcriptional activator Myb A167V, P10242” are within error of each other in abundance fitness: -0.316 ± 0.36 for the first, -0.083 ± 0.1 for the second.

First: Transcriptional activator Myb P174H, P10242
Second: Transcriptional activator Myb Y198G, P10242
The abundance fitness of the first is lower: -0.479 ± 0.12 for the first, -0.041 ± 0.065 for the second.

Going from “Transcriptional activator Myb W185Q, P10242” to “Transcriptional activator Myb G175H, P10242”, the abundance fitness rises from -1.05 ± 0.25 to 0.101 ± 0.17.

“Transcriptional activator Myb L199H, P10242” and “Transcriptional activator Myb S203Q, P10242” are within error of each other in abundance fitness: -0.228 ± 0.2 for the first, 0.061 ± 0.13 for the second.

“Transcriptional activator Myb Q157L, P10242” and “Transcriptional activator Myb Y198F, P10242” are within error of each other in abundance fitness: -0.081 ± 0.22 for the first, -0.033 ± 0.17 for the second.

Compared with “Transcriptional activator Myb K204A, P10242”, “Transcriptional activator Myb K182D, P10242” is lower in abundance fitness: 0.054 ± 0.091 for the first, -0.548 ± 0.1 for the second.

“Transcriptional activator Myb G163E, P10242” and “Transcriptional activator Myb M189G, P10242” are within error of each other in abundance fitness: -0.25 ± 0.088 for the first, -0.268 ± 0.05 for the second.

Going from “Transcriptional activator Myb L173W, P10242” to “Transcriptional activator Myb E150D, P10242”, the abundance fitness rises from -0.968 ± 0.11 to -0.152 ± 0.095.

“Transcriptional activator Myb K192H, P10242” and “Transcriptional activator Myb W185Y, P10242” are within error of each other in abundance fitness: -0.156 ± 0.2 for the first, -0.034 ± 0.14 for the second.

Going from “Transcriptional activator Myb T177D, P10242” to “Transcriptional activator Myb K182C, P10242”, the abundance fitness falls from 0.077 ± 0.095 to -0.167 ± 0.11.

Compared with “Transcriptional activator Myb T177F, P10242”, “Transcriptional activator Myb I154S, P10242” is higher in abundance fitness: -0.79 ± 0.18 for the first, -0.527 ± 0.062 for the second.

Compared with “Transcriptional activator Myb K144M, P10242”, “Transcriptional activator Myb G197I, P10242” is lower in abundance fitness: 0.028 ± 0.1 for the first, -0.717 ± 0.24 for the second.

Going from “Transcriptional activator Myb N183H, P10242” to “Transcriptional activator Myb K182W, P10242”, the abundance fitness falls from 0.141 ± 0.17 to -0.184 ± 0.076.

“Transcriptional activator Myb A167D, P10242” and “Transcriptional activator Myb E196H, P10242” are within error of each other in abundance fitness: -0.177 ± 0.16 for the first, -0.196 ± 0.1 for the second.

“Transcriptional activator Myb Y156H, P10242” and “Transcriptional activator Myb K204G, P10242” are within error of each other in abundance fitness: -0.021 ± 0.11 for the first, -0.166 ± 0.11 for the second.

“Transcriptional activator Myb E196A, P10242” and “Transcriptional activator Myb E194K, P10242” are within error of each other in abundance fitness: -0.069 ± 0.079 for the first, -0.067 ± 0.13 for the second.

“Transcriptional activator Myb T145L, P10242” and “Transcriptional activator Myb E201G, P10242” are within error of each other in abundance fitness: -0.122 ± 0.13 for the first, -0.076 ± 0.054 for the second.

“Transcriptional activator Myb E150Q, P10242” and “Transcriptional activator Myb A167G, P10242” are within error of each other in abundance fitness: 0.026 ± 0.14 for the first, 0.045 ± 0.06 for the second.

Going from “Transcriptional activator Myb K192S, P10242” to “Transcriptional activator Myb I169A, P10242”, the abundance fitness falls from -0.074 ± 0.093 to -0.477 ± 0.1.

Compared with “Transcriptional activator Myb A167M, P10242”, “Transcriptional activator Myb Q195A, P10242” is higher in abundance fitness: -0.313 ± 0.15 for the first, -0.045 ± 0.079 for the second.

“Transcriptional activator Myb Q195I, P10242” and “Transcriptional activator Myb E201M, P10242” are within error of each other in abundance fitness: -0.19 ± 0.15 for the first, -0.078 ± 0.24 for the second.

“Transcriptional activator Myb N179A, P10242” and “Transcriptional activator Myb N186R, P10242” are within error of each other in abundance fitness: 0.001 ± 0.053 for the first, -0.047 ± 0.059 for the second.

Compared with “Transcriptional activator Myb R176L, P10242”, “Transcriptional activator Myb R176Y, P10242” is lower in abundance fitness: -0.423 ± 0.074 for the first, -0.651 ± 0.14 for the second.

“Transcriptional activator Myb T177M, P10242” and “Transcriptional activator Myb K143S, P10242” are within error of each other in abundance fitness: -0.44 ± 0.093 for the first, -0.245 ± 0.11 for the second.

Going from “Transcriptional activator Myb L173E, P10242” to “Transcriptional activator Myb R191A, P10242”, the abundance fitness rises from -0.621 ± 0.088 to 0.036 ± 0.075.

“Transcriptional activator Myb E168Y, P10242” and “Transcriptional activator Myb E168M, P10242” are within error of each other in abundance fitness: -0.657 ± 0.14 for the first, -0.533 ± 0.16 for the second.

“Transcriptional activator Myb A167H, P10242” and “Transcriptional activator Myb K143A, P10242” are within error of each other in abundance fitness: 0.258 ± 0.24 for the first, 0.049 ± 0.15 for the second.

“Transcriptional activator Myb V193D, P10242” and “Transcriptional activator Myb S146L, P10242” are within error of each other in abundance fitness: -0.166 ± 0.087 for the first, -0.299 ± 0.43 for the second.

Compared with “Transcriptional activator Myb A167R, P10242”, “Transcriptional activator Myb G163F, P10242” is lower in abundance fitness: -0.146 ± 0.069 for the first, -0.89 ± 0.16 for the second.

“Transcriptional activator Myb P174E, P10242” and “Transcriptional activator Myb N179S, P10242” are within error of each other in abundance fitness: -0.02 ± 0.098 for the first, -0.075 ± 0.061 for the second.

Compared with “Transcriptional activator Myb Q200M, P10242”, “Transcriptional activator Myb W185R, P10242” is lower in abundance fitness: -0.205 ± 0.088 for the first, -0.686 ± 0.066 for the second.

Going from “Transcriptional activator Myb T148H, P10242” to “Transcriptional activator Myb T145F, P10242”, the abundance fitness rises from -0.556 ± 0.045 to -0.123 ± 0.25.

“Transcriptional activator Myb G197M, P10242” and “Transcriptional activator Myb S146G, P10242” are within error of each other in abundance fitness: -0.334 ± 0.12 for the first, -0.159 ± 0.2 for the second.

Compared with “Transcriptional activator Myb H159R, P10242”, “Transcriptional activator Myb S187P, P10242” is lower in abundance fitness: -0.243 ± 0.18 for the first, -0.589 ± 0.11 for the second.

“Transcriptional activator Myb K192P, P10242” and “Transcriptional activator Myb S187V, P10242” are within error of each other in abundance fitness: -0.082 ± 0.12 for the first, -0.081 ± 0.061 for the second.

“Transcriptional activator Myb N186K, P10242” and “Transcriptional activator Myb V193G, P10242” are within error of each other in abundance fitness: 0.065 ± 0.1 for the first, -0.041 ± 0.051 for the second.

“Transcriptional activator Myb R191E, P10242” and “Transcriptional activator Myb S187L, P10242” are within error of each other in abundance fitness: 0.004 ± 0.086 for the first, -0.019 ± 0.066 for the second.

“Transcriptional activator Myb I181T, P10242” and “Transcriptional activator Myb S202P, P10242” are within error of each other in abundance fitness: -0.278 ± 0.094 for the first, -0.061 ± 0.14 for the second.

Going from “Transcriptional activator Myb Q200L, P10242” to “Transcriptional activator Myb M189P, P10242”, the abundance fitness falls from -0.078 ± 0.067 to -0.386 ± 0.17.

“Transcriptional activator Myb P174D, P10242” and “Transcriptional activator Myb T148N, P10242” are within error of each other in abundance fitness: -0.224 ± 0.1 for the first, -0.271 ± 0.043 for the second.

Going from “Transcriptional activator Myb T148D, P10242” to “Transcriptional activator Myb V193F, P10242”, the abundance fitness rises from -0.348 ± 0.043 to -0.091 ± 0.21.

“Transcriptional activator Myb K171C, P10242” and “Transcriptional activator Myb S187M, P10242” are within error of each other in abundance fitness: -0.238 ± 0.12 for the first, -0.188 ± 0.13 for the second.

Going from “Transcriptional activator Myb W166A, P10242” to “Transcriptional activator Myb T188H, P10242”, the abundance fitness rises from -0.467 ± 0.097 to -0.093 ± 0.1.

“Transcriptional activator Myb P174Y, P10242” and “Transcriptional activator Myb H184N, P10242” are within error of each other in abundance fitness: -0.643 ± 0.12 for the first, -0.817 ± 0.067 for the second.

“Transcriptional activator Myb K171Q, P10242” and “Transcriptional activator Myb G175K, P10242” are within error of each other in abundance fitness: -0.084 ± 0.1 for the first, -0.036 ± 0.095 for the second.

“Transcriptional activator Myb T177W, P10242” and “Transcriptional activator Myb G163L, P10242” are within error of each other in abundance fitness: -0.533 ± 0.073 for the first, -0.581 ± 0.082 for the second.

“Transcriptional activator Myb R191L, P10242” and “Transcriptional activator Myb A180E, P10242” are within error of each other in abundance fitness: -0.058 ± 0.077 for the first, 0.062 ± 0.098 for the second.

“Transcriptional activator Myb S202N, P10242” and “Transcriptional activator Myb Y156E, P10242” are within error of each other in abundance fitness: -0.237 ± 0.18 for the first, -0.124 ± 0.055 for the second.
